Assay results taken from PMC10504544, “1-deoxy-D-xylulose-5-phosphate synthase from Pseudomonas aeruginosa and Klebsiella pneumoniae reveals conformational changes upon cofactor binding” (The Journal of Biological Chemistry, 2023).

What was measured:
[1] = test system: Cc1ncc(C[n+]2csc(CCO[P@](=O)(O)OP(=O)(O)O)c2C)c(N)n1; assay: purified protein; type: biochemical, Pseudomonas aeruginosa; details: varied: cofactor
[2] = test system: Cc1ncc(C[n+]2csc(CCO[P@](=O)(O)OP(=O)(O)O)c2C)c(N)n1; assay: steady-state kinetics (Km); type: biochemical, Klebsiella pneumoniae; details: Mg2+ active site; diphosphate in asparagine-rich region with H bond from Ser52; varied: cofactor
O=CC(O)COP(=O)(O)O = assay: steady-state kinetics (Km), IspC-coupled assay; type: biochemical, Klebsiella pneumoniae; details: ThDP, Mg2+
CC(=O)C(=O)O = assay: steady-state kinetics (Km), IspC-coupled assay; type: biochemical, Klebsiella pneumoniae; details: ThDP, Mg2+

Row | Substance | Km [1] | Km [2] | Km (O=CC(O)COP(=O)(O)O) | Km (CC(=O)C(=O)O)
1 | 1-deoxy-D-xylulose-5-phosphate synthase (paDXPS) (Pseudomonas aeruginosa LESB58; DEL206-245/INS205GGGGGG) | 0.0965 ± 0.014 µM |  |  | 
2 | 1-deoxy-D-xylulose-5-phosphate synthase (kpDXPS) (Klebsiella pneumoniae subsp. pneumoniae MGH 78578; DEL197-240/INS196GGGGGG) |  | 0.11 ± 0.017 µM | 170 ± 43 µM | 113 ± 34 µM
